The source of these data is patent publication US20020082384A1, “Process for folding chemically synthesized polypeptides” (priority 2000, published 2002).

One assay deals with human lymphocytes. As to the kind of experiment: Binding of 125I-labelled chemokine to human lymphocytes. The following applies: binding of 125I-labelled chemokine to human lymphocytes (FIG. 6). The procedure: FIG. 6 is a graph of the comparison between the biological activity of recombinant I-309 and the synthetic, folded I-309 of the present invention. Biological activity was asses-sed by binding the chemokine, labelled with ^125I, to human lymphocytes.
Folding of the chemokine derivative purified byRP-HPLC was carried out by dissolving 65 mg of product in 60 ml of 0.6 M GuHCl, 10 mM NaHPO4 and 1 mM Tris at pH 8.0 and adding cysteine at a concentration of 100 fold molar excess with respect to the peptide. The polypeptide solution was left at 37° C. for 4 days. Complete cysteine pairing was checked by mass spectrometry after reaction with N-ethyhnaleimide (NEM). The yield of final folded chemokine was almost 25%.

The test system of another assay is fresh monocytes. Nature of the assay: Migration across a polycarbonate filter in response to TARC (Imai method), monocytes. In kind it is cell-based, human. The procedure:
(§1) The biological activity of hu-TARC obtained by the methodology of the present invention was performed according to the Imai method (T. Imai et al., J. Biol. Chem., 271, 21514, 1996).
(§2) Human T cell lines, Hut78, Hut 102, and Jurkat, as well as fresh monocytes, neutrophils and lymphocytes were assessed for their migration across a polycarbonate filter in response to TARC.

For another assay, the system named is neutrophils. Nature of the assay: Migration across a polycarbonate filter in response to TARC (Imai method), neutrophils. The class given is cell-based, human. The procedure:
as §1, §2

B1: synthetic, folded, hu-I-309: human chemokine I-309, chemically synthesized with 6 S-t-Bu protected cysteines and folded with cysteine (peptide, UniProt P22362 24-96, looked up)
C-C motif chemokine 1: KSMQVPFSRCCFSFAEQEIPLRAILCYRNTSSICSNEGLIFKLKRGKEACALDTVGWVQRHRKMLRHCPSKRK
With B1, in the assay with human lymphocytes, the “biological activity compared with recombinant I-309” value is recorded as “equivalent to recombinant protein”.

B2: synthetic TARC: 71-residue human thymus and activation regulated chemokine, chemically synthesized as Cys10,11,34,50(S-t-Bu) derivative and folded with cysteine (peptide, UniProt Q92583 24-94, looked up)
C-C motif chemokine 17: ARGTNVGRECCLEYFKGAIPLRKLKTWYQTSEDCSRDAIVFVTVQGRAICSDPNNKRVKNAVKYLQSLERS
Consider B2, for which the chemotactic response result with fresh monocytes and in the assay with neutrophils was “No chemotactic response” in each case.

B3: recombinant TARC: recombinant thymus and activation regulated chemokine used as comparator (protein, UniProt Q92583 24-94, looked up)
C-C motif chemokine 17: B2 C-C motif chemokine 17
Turning to B3, the chemotactic response result in the assay with fresh monocytes and in the assay with neutrophils was “No chemotactic response” throughout.
